Laboratory results as given in article PMC3634489.

Tests used:
[1] = biological target: 2A1 IgA of the combination HCα1-LCλ-JC (heavy chain α1 without KDEL, λ light chain, co-expressed J chain) (human) (UniProt P01591); experiment: ELISA
[2] = biological target: 2A1 IgA of the combination HCα1-LCλ-JC (heavy chain α1 without KDEL, λ light chain, co-expressed J chain) (human) (UniProt P01591); experiment: ELISA; […]) capture antibody, […]
[3] = biological target: 2A1 IgA of the combination HCα1-LCλ-JC (heavy chain α1 without KDEL, λ light chain, co-expressed J chain) (human) (UniProt P01591); experiment: SEC

Chain of UniProt P01591 (P01591 whole entry, looked up): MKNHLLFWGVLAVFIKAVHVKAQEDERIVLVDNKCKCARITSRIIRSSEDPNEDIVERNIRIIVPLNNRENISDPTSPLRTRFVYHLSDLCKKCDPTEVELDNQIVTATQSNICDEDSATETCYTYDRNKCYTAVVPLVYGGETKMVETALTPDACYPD

Substance: secretory component with a C-terminal KDEL signal (SCkdel) (from UniProt P01833 19-638) (domain or fragment)
- percent of total HC in the sIgA complex [1]: 21%
- percent of total HC in the sIgA complex [2]: > 33%
- percent of total IgA content as sIgA [3]: 20%
